Experimental data as given in patent publication EP1165135B1 (City of Hope, dated 2004).

T1: rat FXR (farnesoid X-activated receptor), full-length (rat, UniProt Q62735 1-469)
T1 construct: mature; Full-length protein cloned into pCMX and translated in vitro for the mobility shift assays; also called bile acid nuclear receptor
T1 sequence (looked up): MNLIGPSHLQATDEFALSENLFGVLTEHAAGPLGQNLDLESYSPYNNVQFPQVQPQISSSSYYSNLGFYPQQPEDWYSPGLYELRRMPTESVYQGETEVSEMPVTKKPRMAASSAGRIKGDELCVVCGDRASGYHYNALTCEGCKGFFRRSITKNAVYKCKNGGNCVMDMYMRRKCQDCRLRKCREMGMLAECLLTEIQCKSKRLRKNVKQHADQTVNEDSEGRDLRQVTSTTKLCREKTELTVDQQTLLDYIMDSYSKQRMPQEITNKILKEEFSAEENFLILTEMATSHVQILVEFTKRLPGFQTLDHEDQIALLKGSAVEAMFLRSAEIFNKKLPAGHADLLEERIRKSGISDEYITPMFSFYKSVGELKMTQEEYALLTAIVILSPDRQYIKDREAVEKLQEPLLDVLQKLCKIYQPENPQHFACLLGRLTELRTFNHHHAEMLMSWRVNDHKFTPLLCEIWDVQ

T2: GST-GRIP1, the three receptor interaction domains of mouse GRIP1 (Arg 625 - Lys 765) fused to … (mouse, UniProt Q61026 625-765)
T2 construct: Expressed in E. coli and purified on glutathione-sepharose; also called CoA; not shown: glutathione-S-transferase (GST)
T2 sequence (looked up): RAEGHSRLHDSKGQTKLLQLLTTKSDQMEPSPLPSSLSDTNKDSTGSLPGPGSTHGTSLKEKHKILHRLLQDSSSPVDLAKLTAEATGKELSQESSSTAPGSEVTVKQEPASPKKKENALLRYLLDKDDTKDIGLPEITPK


Experiments:
[1] = molecular target: T1, rat FXR (farnesoid X-activated …); assay: electrophoretic mobility shift, in vitro translated FXR + RXR on EcRE probe
[2] = molecular target: T1, rat FXR (farnesoid X-activated …); assay: DNA binding as a heterodimer (Figure 5 and data not shown)
[3] = molecular target: T2, GST-GRIP1, the three receptor …; assay: electrophoretic mobility shift, DR1 probe, LG268 0-1000 nM
[4] = molecular target: T2, GST-GRIP1, the three receptor …; assay: phosphorimager quantitation of the mobility shift autoradiogram against LG268 concentration (Figure 4)

| binding result [1] | binding result [2] | fold decrease in potency of coactivator recruitment compared to wild type RXR [3] [fold] | fold higher ligand concentration required for recruitment of coactivator (against wild-type RXR) [4] [fold] | Binder |
| --- | --- | --- | --- | --- |
| binds |  |  |  | human RXRα (9-cis retinoic acid receptor), full-length, wild type (receptor, UniProt P19793 1-462, looked up, mature; also called wild-type RXR) MDTKHFLPLDFSTQVNSSLTSPTGRGSMAAPSLHPSLGPGIGSPGQLHSPISTLSSPINGMGPPFSVISSPMGPHSMSVPTTPTLGFSTGSPQLSSPMNPVSSSEDIKPPLGLNGVLKVPAHPSGNMASFTKHICAICGDRSSGKHYGVYSCEGCKGFFKRTVRKDLTYTCRDNKDCLIDKRQRNRCQYCRYQKCLAMGMKREAVQEERQRGKDRNENEVESTSSANEDMPVERILEAELAVEPKTETYVEANMGLNPSSPNDPVTNICQAADKQLFTLVEWAKRIPHFSELPLDDQVILLRAGWNELLIASFSHRSIAVKDGILLATGLHVHRNSAHSAGVGAIFDRVLTELVSKMRDMQMDKTELGCLRAIVLFNPDSKGLSNPAEVEALREKVYASLEAYCKHKYPEQPGRFAKLLLRLPALRSIGLKCLEHLFFFKLIGDTPIDTFLMEMLEAPHQMT |
|  | binds | 100 | ~100 | RXRm, human RXRα with the point mutation Asp 322→Pro in the ligand binding domain (receptor, UniProt P19793 1-462, looked up, mature; Claim 9 prints Asp332→Pro; also called mutant RXR; RXR mutant) MDTKHFLPLDFSTQVNSSLTSPTGRGSMAAPSLHPSLGPGIGSPGQLHSPISTLSSPINGMGPPFSVISSPMGPHSMSVPTTPTLGFSTGSPQLSSPMNPVSSSEDIKPPLGLNGVLKVPAHPSGNMASFTKHICAICGDRSSGKHYGVYSCEGCKGFFKRTVRKDLTYTCRDNKDCLIDKRQRNRCQYCRYQKCLAMGMKREAVQEERQRGKDRNENEVESTSSANEDMPVERILEAELAVEPKTETYVEANMGLNPSSPNDPVTNICQAADKQLFTLVEWAKRIPHFSELPLDDQVILLRAGWNELLIASFSHRSIAVKPGILLATGLHVHRNSAHSAGVGAIFDRVLTELVSKMRDMQMDKTELGCLRAIVLFNPDSKGLSNPAEVEALREKVYASLEAYCKHKYPEQPGRFAKLLLRLPALRSIGLKCLEHLFFFKLIGDTPIDTFLMEMLEAPHQMT |
